Entries after “also recorded” stand apart in the source; their conditions may differ.
How the values were obtained:
[1] = tested on: rat PAR2-expressing KNRK cells; test: P44/42 ERK/MAP kinase activation in rat PAR2-expressing KNRK cells; format: cell-based; details: ISP1 for 10 min
Procedure: Western blot detection of P44/42 ERK was performed essentially as described. In brief, KNRK cells that had been transfected with the PAR2 expressing construct (PAR2 -KNRK) or empty vector (pcDNA3-KNRK) were serum starved and stimulated with ISP1 for 10 min. Cells were placed on ice and agonists were removed prior to lysis with cold lysis buffer (Roche). Protein samples were boiled for 10 min in Laemelis buffer and resolved on SDS-PAGE gels. Activation of MAP Kinase was monitored by immunoblotting with phospho-specific ERK antibodies (Cell signaling) and relative increases in ERK phosphorylation was quantified relative to total ERK signal detected in the same samples. As a positive control cells were activated with SLIGRL-NH2 that causes a PAR2-mediated increase in MAPkinase phosphorylation.

[2] = biological target: T1, rat PAR4 (Rattus norvegicus, UniProt Q920E0); test: Calcium signaling assay, PAR4 activation/disarming in rat platelets; format: cell-based
T1 construct: rat platelets that express only functional PAR4 but neither PAR1 nor PAR2; endogenous in cells; host or cells: rat platelets from platelet-rich plasma
T1 sequence (Q920E0 17-395): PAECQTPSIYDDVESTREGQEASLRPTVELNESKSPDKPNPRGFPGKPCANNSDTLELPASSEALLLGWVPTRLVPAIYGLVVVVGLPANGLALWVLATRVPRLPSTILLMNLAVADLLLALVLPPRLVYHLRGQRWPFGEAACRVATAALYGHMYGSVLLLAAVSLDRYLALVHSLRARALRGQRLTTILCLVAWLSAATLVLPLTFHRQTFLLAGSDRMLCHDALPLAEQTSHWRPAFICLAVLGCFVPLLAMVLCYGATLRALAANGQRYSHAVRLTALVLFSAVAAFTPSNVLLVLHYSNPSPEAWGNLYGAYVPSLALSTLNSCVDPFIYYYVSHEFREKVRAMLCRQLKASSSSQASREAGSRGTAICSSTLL
Procedure: Cell lines (grown to about 85% confluence and disaggregated with calcium-free isotonic phosphate-buffered saline containing 0.2 mM EDTA) and rat platelets (harvested from platelet-rich anti-coagulated plasma) were prepared and used as previously described. Cells were incubated for 25 min at room temperature with Fluo-3 acetoxymethyl ester (final concentration, 22 µM) along with 0.4 mM sulfinpyrazone. Cells were washed twice by centrifugation (using the following buffer without calcium) and resuspended in the calcium signaling buffer: 150 mM NaCl, 3 mM KCl, 1.5 mM CaCl2, 20 mM HEPES, 10 mM dextrose, and 0.25 mM sulfinpyrazone, pH 7.4.
Fluorescence was measured at 24 °C with an excitation wavelength of 480 nm and an emission recorded at 530 nm using an Aminco Bowman Series 2 Luminescence spectrometer (ThermoSpectronic Model FA354, Spectronic Unicam, Rochester, NY). The fluorescence signals caused by the addition of test agonists (trypsin, PAR-activating peptide or rISP1, added to 2 ml of a cell suspension of ~3 x 10^5 cells/ml) were compared with the fluorescence peak height yielded by replicate cell suspensions treated with 2 µM ionophore A23187. This concentration of A23187 was at the plateau of its concentration-response curve for a fluorescence response in Fluo-3-loaded cultured cells. Under these conditions, the calculated values for intracellular calcium in the HEK and KNRK cells were [picture] 30 nM under basal conditions and about 340 nM upon exposure to A23187 [8, 9].
Previous work has shown that the fluorescence response of a cell preparation, as a percentage relative to the signal generated by 2 µM A23187, is a valid reference standard for the comparative determination of calcium signals for all PAR agonists. The cellular calcium response was therefore recorded as a percentage of the response generated by 2 µM ionophore A23187 [6]. Concentration-effect curves for recombinant enzyme (rISP1) were obtained by measuring the calcium signals generated by measuring the effects (receptor activation or disarming) of increasing enzyme concentrations in replicate cell suspensions (2 ml).
Receptor activation was monitored as an enzyme-stimulated increase in fluorescence emission (E530). As outlined in the following paragraph, receptor disarming or disabling was ascertained by the ability of ISP1 pre-treatment of the cells to abrogate the calcium signal caused by the subsequent addition of either a PAR-activating enzyme (thrombin for PARs 1 & 4; trypsin for PAR2) or a PAR-activating peptide (a reduced response to the activating peptide reflects receptor disabling). […]

Cellular response to PAR4-activating peptide after ISP1 pre-treatment ([2]; AYPGKF-NH2 (100 µM), concentration-dependent): diminished
Activation of a calcium signal via PAR4 ([2]; enzyme alone): did not activate a calcium signal
residual PAR4 activity triggered by thrombin ([2]; pre-treatment with 5 Units/ml ISP1, then thrombin (0.5 units/ml)): ~75%
residual PAR4 activity (% of control) ([2]; pre-treatment with 20 units ISP1/ml, then thrombin (0.5 units/ml)): ~20%
B1: ISP1: recombinant implantation serine proteinase 1 expressed in Pichia pastoris, also known as Mouse Prss28 (protein, UniProt Q924N9 27-274, looked up)
Serine protease 28: KPVGIVGGQRTPPGKWPWQVSLRMYSYEVNSWVHICGGSIIHPQWILTAAHCIQSQDADPAVYRVQVGEVYLYKEQELLNISRIIIHPDYNDVSKRFDLALMQLTALLVTSTNVSPVSLPKDSSTFDSTDQCWLVGWGNLLQRVPLQPPYQLHEVKIPIQDNKSCKRAYRKKSSDEHKAVAIFDDMLCAGTSGRGPCFGDSGGPLVCWKSNKWIQVGVVSKGIDCSNNLPSIFSRVQSSLAWIHQHIQ
modifications: recombinant, Pichia pastoris-expressed
notes: recombinant implantation serine proteinase 1 expressed in Pichia pastoris, also known as Mouse Prss28
Phosphorylation status of ERK via MAP kinase activation [1]: No change in phosphorylation status of ERK; also recorded: No activation of ERK

— PMC3223204, “Implantation Serine Proteinase 1 Exhibits Mixed Substrate Specificity that Silences Signaling via Proteinase-Activated Receptors” (PLoS ONE, 2011)
